Experimental data published in article PMC7110113, “Termination of non‐coding transcription in yeast relies on both an RNA Pol II CTD interaction domain and a CTD‐mimicking region in Sen1” (The EMBO Journal, 2020).

B1: Nrd1 CID [S. cerevisiae] / Sen1 NIM peptide, FAM-labelled [modified: 5,6-carboxyfluorescein (FAM) on the N-terminus; 5,6-carboxyfluorescein (FAM) on the N-terminus] [S. cerevisiae] (parent complex)
chain 1: MQQDDDFQNFVATLESFKDLKSGISGSRIKKLTTYALDHIDIESKIISLIIDYSRLCPDSHKLGSLYIIDSIGRAYLDETRSNSNSSSNKPGTCAHAINTLGEVIQELLSDAIAKSNQDHKEKIRMLLDIWDRSGLFQKSYLNAIRSKCFAMD
chain 2: DDDEDDYTPSIS

Variants of: B1
Assay: fluorescence anisotropy (FA); parent: 1.2e+03 nM

Kd [µM]	Variant
7.38	chain 1 I130A
